Data: IntAct's records for PubMed 23435383

B1: Endonuclease III homolog 2 (Saccharomyces cerevisiae), Q08214 (parent)
chain: MREESRSRKRKHIPVDIEEVEVRSKYFKKNERTVELVKENKINKDLQNYGGVNIDWIKALKPIEYFEWIESRTCDDPRTWGRPITKEEMINDSGAKVPESFLPIYNRVRLMRSKVKTPVDAMGCSMIPVLVSNKCGIPSEKVDPKNFRLQFLIGTMLSAQTRDERMAQAALNITEYCLNTLKIAEGITLDGLLKIDEPVLANLIRCVSFYTRKANFIKRTAQLLVDNFDSDIPYDIEGILSLPGVGPKMGYLTLQKGWGLIAGICVDVHVHRLCKMWNWVDPIKCKTAEHTRKELQVWLPHSLWYEINTVLVGFGQLICMARGKRCDLCLANDVCNARNEKLIESSKFHQLEDKEDIEKVYSHWLDTVTNGITTERHKKK
partner: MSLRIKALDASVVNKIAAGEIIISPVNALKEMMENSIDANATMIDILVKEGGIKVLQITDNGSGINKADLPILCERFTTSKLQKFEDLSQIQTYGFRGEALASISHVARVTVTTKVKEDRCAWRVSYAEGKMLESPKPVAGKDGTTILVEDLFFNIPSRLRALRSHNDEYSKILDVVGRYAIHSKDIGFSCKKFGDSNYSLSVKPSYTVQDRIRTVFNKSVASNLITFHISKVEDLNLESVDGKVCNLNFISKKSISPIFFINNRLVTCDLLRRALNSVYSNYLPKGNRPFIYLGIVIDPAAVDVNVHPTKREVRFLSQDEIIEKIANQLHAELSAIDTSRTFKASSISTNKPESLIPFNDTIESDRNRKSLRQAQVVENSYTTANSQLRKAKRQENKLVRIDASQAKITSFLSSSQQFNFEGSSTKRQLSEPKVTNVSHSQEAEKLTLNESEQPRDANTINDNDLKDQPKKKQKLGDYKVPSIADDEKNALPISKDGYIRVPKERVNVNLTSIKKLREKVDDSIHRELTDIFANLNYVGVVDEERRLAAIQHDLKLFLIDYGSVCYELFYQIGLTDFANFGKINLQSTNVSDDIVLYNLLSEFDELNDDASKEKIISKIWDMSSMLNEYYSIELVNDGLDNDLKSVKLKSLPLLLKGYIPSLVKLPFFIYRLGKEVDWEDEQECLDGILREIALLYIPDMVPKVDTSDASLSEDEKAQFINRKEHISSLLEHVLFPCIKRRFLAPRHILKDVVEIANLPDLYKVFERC
B2: DNA mismatch repair protein MLH1 (Saccharomyces cerevisiae), P38920 (parent)
chain: B1 partner
partner: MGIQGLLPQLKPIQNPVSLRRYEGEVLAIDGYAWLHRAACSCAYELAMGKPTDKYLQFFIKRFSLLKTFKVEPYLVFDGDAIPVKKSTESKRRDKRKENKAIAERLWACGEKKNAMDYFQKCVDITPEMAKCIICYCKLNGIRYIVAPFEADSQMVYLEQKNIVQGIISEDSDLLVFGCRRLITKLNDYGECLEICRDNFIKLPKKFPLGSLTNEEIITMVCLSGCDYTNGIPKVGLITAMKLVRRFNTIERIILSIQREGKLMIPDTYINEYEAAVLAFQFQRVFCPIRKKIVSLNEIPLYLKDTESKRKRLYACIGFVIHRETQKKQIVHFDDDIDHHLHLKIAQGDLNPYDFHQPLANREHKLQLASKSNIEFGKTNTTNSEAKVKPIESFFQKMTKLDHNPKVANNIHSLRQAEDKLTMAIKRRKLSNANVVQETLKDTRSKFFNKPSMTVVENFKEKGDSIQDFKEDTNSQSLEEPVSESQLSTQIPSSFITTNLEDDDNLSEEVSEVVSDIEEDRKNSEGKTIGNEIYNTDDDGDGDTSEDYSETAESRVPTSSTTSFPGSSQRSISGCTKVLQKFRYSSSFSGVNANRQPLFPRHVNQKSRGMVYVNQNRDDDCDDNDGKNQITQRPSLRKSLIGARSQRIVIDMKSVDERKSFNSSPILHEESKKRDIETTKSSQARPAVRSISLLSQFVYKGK
B3: DNA mismatch repair protein MLH1 (Saccharomyces cerevisiae), P38920 (parent)
chain: B1 partner
partner: B1 chain

Variants of: B1
Settings: with mlh1_yeast MLH1, P38920

Variant | effect of a mutation on the interaction
MREESRSRKRKHIPVDIEEVEVRSKYAKKNERTVELVKENKINKDLQNYGGVNIDWIKALKPIEYFEWIESRTCDDPRTWGRPITKEEMINDSGAKVPESFLPIYNRVRLMRSKVKTPVDAMGCSMIPVLVSNKCGIPSEKVDPKNFRLQFLIGTMLSAQTRDERMAQAALNITEYCLNTLKIAEGITLDGLLKIDEPVLANLIRCVSFYTRKANFIKRTAQLLVDNFDSDIPYDIEGILSLPGVGPKMGYLTLQKGWGLIAGICVDVHVHRLCKMWNWVDPIKCKTAEHTRKELQVWLPHSLWYEINTVLVGFGQLICMARGKRCDLCLANDVCNARNEKLIESSKFHQLEDKEDIEKVYSHWLDTVTNGITTERHKKK [F27A] | disrupting interaction strength
MREESRSRKRKHIPVDIEEVEVRSKYYKKNERTVELVKENKINKDLQNYGGVNIDWIKALKPIEYFEWIESRTCDDPRTWGRPITKEEMINDSGAKVPESFLPIYNRVRLMRSKVKTPVDAMGCSMIPVLVSNKCGIPSEKVDPKNFRLQFLIGTMLSAQTRDERMAQAALNITEYCLNTLKIAEGITLDGLLKIDEPVLANLIRCVSFYTRKANFIKRTAQLLVDNFDSDIPYDIEGILSLPGVGPKMGYLTLQKGWGLIAGICVDVHVHRLCKMWNWVDPIKCKTAEHTRKELQVWLPHSLWYEINTVLVGFGQLICMARGKRCDLCLANDVCNARNEKLIESSKFHQLEDKEDIEKVYSHWLDTVTNGITTERHKKK [F27Y] | disrupting interaction strength
MREESRSRKRKHIPVDIEEVEVRSKFFKKNERTVELVKENKINKDLQNYGGVNIDWIKALKPIEYFEWIESRTCDDPRTWGRPITKEEMINDSGAKVPESFLPIYNRVRLMRSKVKTPVDAMGCSMIPVLVSNKCGIPSEKVDPKNFRLQFLIGTMLSAQTRDERMAQAALNITEYCLNTLKIAEGITLDGLLKIDEPVLANLIRCVSFYTRKANFIKRTAQLLVDNFDSDIPYDIEGILSLPGVGPKMGYLTLQKGWGLIAGICVDVHVHRLCKMWNWVDPIKCKTAEHTRKELQVWLPHSLWYEINTVLVGFGQLICMARGKRCDLCLANDVCNARNEKLIESSKFHQLEDKEDIEKVYSHWLDTVTNGITTERHKKK [Y26F] | decreasing interaction strength

Variants of: B2
Settings: with exo1_yeast EXO1, P39875

Variant | effect of a mutation on the interaction
L511A | disrupting interaction strength

Variants of: B3
Settings: with nth2_yeast NTG2, Q08214

Variant | effect of a mutation on the interaction
L511A | disrupting interaction strength
